From patent US7056508 (NEW YORK UNIVERSITY, dated 2006) come the findings set out here.

First the molecules themselves.
B1: murine receptor-type protein tyrosine phosphatase-κ (RPTPκ) precursor protein (receptor)
chain: ALGQFSAGGCTFDDGPGACDYHQDLYDDFEWVHVSAQEPHYLPPEMPQGSYMVVDSSNHDPGEKARLQLPTMKENDTHCIDFSYLLYSQKGLNPGTLNILVRVNKGPLANPIWNVTGFTGRDWLRAELAVSTFWPNEYQVIFEAEVSGGRSGYIAIDDIQVLSYPCDKSPHFLRLGDVEVNAGQNATFQCIATGRDAVHNKLWLQRRNGEDIPVAQTKNINHRRFAASFRLQEVTKTDQDLYRCVTQSERGSGVSNFAQLIVREPPRPIAPPQLLGVGPTYLLIQLNANSIIGDGPIILKEVEYRMTSGSWTETHAVNAPTYKLWHLDPDTEYEIRVLLTRPGEGGTGLPGPPLITRTKCAEPMRTPKTLKIAEIQARRIAVDWESLGYNITRCHTFNVTICYHYFRGHNESRADCLDMDPKAPQHVVNHLPPYTNVSLKMILTNPEGRKESEETIIQTDEDVPGPVPVKSLQGTSFENKIFLNWKEPLEPNGIITQYEVSYSSIRSFDPAVPVAGPPQTVSNLWNSTHHVFMHLHPGTTYQFFIRASTVKGFGPATAINVTTNISAPSLPDYEGVDASLNETATTITVLLRPAQAKGAPISAYQIVVEQLHPHRTKREAGAMECYQVPVTYQNALSGGAPYYFAAELPPGNLPEPAPFTVGDNRTYKGFWNPPLAPRKGYNIYFQAMSSVEKETKTQCVRIATKAAATEEPEVIPDPAKQTDRVVKIAGISAGILVFILLLLVVIVIVKKSKLAKKRKDAMGNTRQEMTHMVNAMDRSYADQSTLHAEDPLSLTFMDQHNFSPRLPNDPLVPTAVLDENHSATAESSRLLDVPRYLCEGTESPYQTGQLHPAIRVADLLQHINLMKTSDSYGFKEEYESFFEGQSASWDVAKKDQNRAKNRYGNIIAYDHSRVILQPVEDDPSSDYINANYIDIWLYRDGYQRPSHYIATQGPVHETVYDFWRMVWQEQSACIVMVTNLVEVGRVKCYKYWPDDTEVYGDFKVTCVEMEPLAEYVVRTFTLERRGYNEIREVKQFHFTGWPDHGVPYHATGLLSFIRRVKLSNPPSAGPIVVHCSAGAGRTGCYIVIDIMLDMAEREGVVDIYNCVKALRSRRINMVQTEEQYIFIHDAILEACLCGETAIPVCEFKAAYFDMIRIDSQTNSSHLKDEFQTLNSVTPRLQAEDCSIACLPRNHDKNRFMDMLPPDRCLPFLITIDGESSNYINAALMDSYRQPAAFIVTQYPLPNTVKDFWRLVYDYGCTSIVMLNEVDLSQGCPQYWPEEGMLRYGPIQVECMSCSMDCDVINRIFRICNLTRPQEGYLMVQQFQYLGWASHREVPGSKRSFLKLILQVEKWQEECEEGEGRTIIHCLNGGGRSGMFCAIGIVVEMVKRQNVVDVFHAVKTLRNSKPNMVEAPEQYRFCYDVALEYLESS
notes: Full-length cDNA expressed in HeLa, COS, Drosophila S2 and rat L6 cells, tested on cells or in their lysates; It is partly cleaved at RTKR (640-643) into 110 kDa and 100 kDa products; also called RPTPase-κ; wt RPTPκ

Series [1] addresses [32P]-tyrosine phosphorylated myelin basic protein. Put plainly: cell-based or functional assay.
Series [2] deals with the molecule itself. Put plainly: co-aggregation of diI-labelled and unlabelled S2 cells, fluorescence microscopy. An excerpt: FIGS. 23A–23C. […] Two different cell populations, one of which had been labeled with the fluorescent dye diI (J. Schiessinger et al. Science 195, 307, (1977)), were allowed to co-aggregate and the resulting aggregates inspected by visible and fluorescence microscopy. diI-fluorescence is white in the photographs.

Series [3] has as its target B1. Kind of series: cell-to-substrate adhesion, induced S2-R-PTP-κ cells on the coated dish.
Series [4] addresses B1. Kind of series: cell-to-substrate adhesion, L6 cells on a K2AP-coated surface.

Chain of [32P]-tyrosine phosphorylated myelin basic protein (P02687 whole entry): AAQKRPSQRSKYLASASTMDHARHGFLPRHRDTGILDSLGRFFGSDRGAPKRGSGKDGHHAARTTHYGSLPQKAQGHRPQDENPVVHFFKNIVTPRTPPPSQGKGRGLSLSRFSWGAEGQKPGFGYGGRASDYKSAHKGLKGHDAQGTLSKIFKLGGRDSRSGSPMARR

As for B1, the “PTPase activity in immune complexes (release of [32P]-phosphate)” value in series [1] is approximately 3 fold. Also, in series [2], the binding result is recorded as “binds”.

B2: secreted alkaline phosphatase (AP) control protein (enzyme, human, UniProt P05187 23-511, looked up)
chain: IIPVEEENPDFWNREAAEALGAAKKLQPAQTAAKNLIIFLGDGMGVSTVTAARILKGQKKDKLGPEIPLAMDRFPYVALSKTYNVDKHVPDSGATATAYLCGVKGNFQTIGLSAAARFNQCNTTRGNEVISVMNRAKKAGKSVGVVTTTRVQHASPAGTYAHTVNRNWYSDADVPASARQEGCQDIATQLISNMDIDVILGGGRKYMFRMGTPDPEYPDDYSQGGTRLDGKNLVQEWLAKRQGARYVWNRTELMQASLDPSVTHLMGLFEPGDMKYEIHRDSTLDPSLMEMTEAALRLLSRNPRGFFLFVEGGRIDHGHHESRAYRALTETIMFDDAIERAGQLTSEEDTLSLVTADHSHVFSFGGYPLRGSSIFGLAPGKARDRKAYTVLLYGNGPGYVLKDGARPDVTESESGSPEYRQQSAVPLDEETHAGEDVAVFARGPQAHLVHGVQEQTFIAHVMAFAACLEPYTACDLAPPAGTTDAAHPG
notes: About 50% pure; also called alkaline phosphatase control protein
As to B2, the binding result in series [3] is reported as “no binding (tested: 20 g/ml (so in the source) spotted)”.

B3: K2AP fusion protein (amino acids 1-639 of the RPTPκ proprotein fused to human placental alkaline phosphatase) (other)
chain: ALGQFSAGGCTFDDGPGACDYHQDLYDDFEWVHVSAQEPHYLPPEMPQGSYMVVDSSNHDPGEKARLQLPTMKENDTHCIDFSYLLYSQKGLNPGTLNILVRVNKGPLANPIWNVTGFTGRDWLRAELAVSTFWPNEYQVIFEAEVSGGRSGYIAIDDIQVLSYPCDKSPHFLRLGDVEVNAGQNATFQCIATGRDAVHNKLWLQRRNGEDIPVAQTKNINHRRFAASFRLQEVTKTDQDLYRCVTQSERGSGVSNFAQLIVREPPRPIAPPQLLGVGPTYLLIQLNANSIIGDGPIILKEVEYRMTSGSWTETHAVNAPTYKLWHLDPDTEYEIRVLLTRPGEGGTGLPGPPLITRTKCAEPMRTPKTLKIAEIQARRIAVDWESLGYNITRCHTFNVTICYHYFRGHNESRADCLDMDPKAPQHVVNHLPPYTNVSLKMILTNPEGRKESEETIIQTDEDVPGPVPVKSLQGTSFENKIFLNWKEPLEPNGIITQYEVSYSSIRSFDPAVPVAGPPQTVSNLWNSTHHVFMHLHPGTTYQFFIRASTVKGFGPATAINVTTNISAPSLPDYEGVDASLNETATTITVLLRPAQAKGAPISAYQIVVEQLHPH
notes: Secreted from baculovirus-infected High-Five cells and about 90% pure; K2AP-a was eluted at alkaline pH and K2AP-b with 50% ethylene glycol; they are the same protein; also called K2AP-a; K2AP-b; not shown: human placental alkaline phosphatase, fused in-frame as a tag
Consider B3, for which the “fold increase in adhesive capacity (RPTPκ-overexpressing L6 cells against parental L6 cells)” value in series [4] came out at 2.7 fold.
